# Test results as given in US20230212319A1, “NOVEL ANTIGEN BINDING DOMAINS AND SYNTHETIC ANTIGEN RECEPTORS INCORPORATING THE SAME” (University of Southern California, priority 2020, published 2023).
# B1: SEQ ID NO: 22177: trispecific SAR construct targeting CD19 and CD20 and coexpressing the ligand binding domain of NKG2D (protein)
# chain: MALPVTALLLPLALLLHAARPLFNQEVQIPLTESYCGPCPKNWICYKNNCYQFFDESKNWYESQASCMSQNASLLKVYSKEDQDLLKLVKSYHWMGLVHIPTNGSWQWEDGSILSPNLLTIIEMQKGDCALYASSFKGYIENCSTPNTYICMQRTVGGGGSGGGGSGGGGSDLFNQEVQIPLTESYCGPCPKNWICYKNNCYQFFDESKNWYESQASCMSQNASLLKVYSKEDQDLLKLVKSYHWMGLVHIPTNGSWQWEDGSILSPNLLTIIEMQKGDCALYASSFKGYIENCSTPNTYICMQRTVGTGGGGSGGGGSGGGGSEFDIQMTQSPSSLSASVGDRVTITCKASDHINNWLAWYQQKPGQAPKLLIYGATTLETGVPSRFSGSGSGTDYTLTISSLQPEDFATYYCQQSWNTPWTFGQGTKLEIKRLEDLKNVFPPEVAVFEPSKAEIAHTQKATLVCLATGFYPDHVELSWWVNGKEVHSGVCTDPQPLKEQPALNDSRYCLSSRLRVSATFWQNPRNHFRCQVQFYGLSENDEWTQDRAKPVTQIVSAEAWGRADCGITSASYHQGVLSATILYEILLGKATLYAVLVSALVLMAMVKRKDSRGRAKRSGSGATNFSLLKQAGDVEENPGPTSATMDWIWRILFLVGAATGAHSGPQVQLQESGGGLAQAGGSLRLSCAASGRTFSMGWFRQAPGKEREFVAAITYSGGSPYYASSVRGRFTISRDNAKNTVYLQMNSLKPEDTAVYYCAANPTYGSDWNAENWGQGTQVTVSSGSGGGGSGGGGSGGGGSFEQVQLQQPGAELVKPGASVKMSCKASGYAFSSYWINWMKQKPGQGLEWIGQIYPGDGDTNYNGKFKGRATLTADTSSSTAYMQLSSLTSEDSAVYFCARSITTVVGCAMDYWGQGTSVTVSSTRIQNPDPAVYQLRDSKSSDKSVCLFTDFDSQTNVSQSKDSDVYITDKCVLDMRSMDFKSNSAVAWSNKSDFACANAFNNSIIPEDTFFPSSDVPCDVKLVEKSFETDTNLNFQNLSVIGFRILLLKVAGFNLLMTLRLWSSRAKRSGSGVKQTLNFDLLKLAGDVESNPGPSRGHMTEYKPTVRLATRDDVPRAVRTLAAAFADYPATRHTVDPDRHIERVTELQELFLTRVGLDIGKVWVADDGAAVAVWTTPESVEAGAVFAEIGPRMAELSGSRLAAQQQMEGLLAPHRPKEPAWFLATVGVSPDHQGKGLGSAVVLPGVEAAERAGVPAFLETSAPRNLPFYERLGFTVTADVEVPEGPRTWCMTRKPGA
# B2: CD8SP-BCMA-FHVH-93-G4S-CD19-MOR0028-scFv-hCD8TM-BBZ-T2A-PAC (protein)
# chain: MALPVTALLLPLALLLHAARPACEVQLLESGGGLIQPGGSLRLSCAASGFTFSSHAMTWVRQAPGKGLEWVSAISGSGDYTHYADSVKGRFTISRDNSKNTVYLQMNSLRAEDSAVYYCAKDEDGGSLLGHRGQGTLVTVSSGTGGGGSGGGGSGGGGSEFINIYNAEPANPSEKNSPEFDIVMTQSPATLSLSPGERATLSCRSSKSLQNVNGNTYLYWFQQKPGQSPQLLIYRMSNLNSGVPDRFSGSGSGTEFTLTISSLEPEDFAVYYCMQHLEYPITFGAGTKLEIKGGGGSGGGGSGGGGSEVQLVESGGGLVKPGGSLKLSCAASGYTFTSYVMHWVRQAPGKGLEWIGYINPYNDGTKYNEKFQGRVTISSDKSISTAYMELSSLRSEDTAMYYCARGTYYYGTRVFDYWGQGTLVTVSSTRTTTPAPRPPTPAPTIASQPLSLRPEACRPAAGGAVHTRGLDFACDIYIWAPLAGTCGVLLLSLVITLYCKRGRKKLLYIFKQPFMRPVQTTQEEDGCSCRFPEEEEGGCELRVKFSRSADAPAYQQGQNQLYNELNLGRREEYDVLDKRRGRDPEMGGKPRRKNPQEGLYNELQKDKMAEAYSEIGMKGERRRGKGHDGLYQGLSTATKDTYDALHMQALPPRSSGSGEGRGSLLTCGDVEENPGPHMTEYKPTVRLATRDDVPRAVRTLAAAFADYPATRHTVDPDRHIERVTELQELFLTRVGLDIGKVWVADDGAAVAVWTTPESVEAGAVFAEIGPRMAELSGSRLAAQQQMEGLLAPHRPKEPAWFLATVGVSPDHQGKGLGSAVVLPGVEAAERAGVPAFLETSAPRNLPFYERLGFTVTADVEVPEGPRTWCMTRKPGA
# B3: 22195 (protein)
# chain: MALPVTALLLPLALLLHAARPDIQMTQSPSSLSASVGDRVTITCKASDHINNWLAWYQQKPGQAPKLLIYGATTLETGVPSRFSGSGSGTDYTLTISSLQPEDFATYYCQQSWNTPWTFGQGTKLEIKRLEDLKNVFPPEVAVFEPSEAEISHTQKATLVCLATGFYPDHVELSWWVNGKEVHSGVCTDPQPLKEQPALNDSRYCLSSRLRVSATFWQNPRNHFRCQVQFYGLSENDEWTQDRAKPVTQIVSAEAWGRADCGFTSESYQQGVLSATILYEILLGKATLYAVLVSALVLMAMVKRKDSRGRAKRSGSGATNFSLLKQAGDVEENPGPTSATMDWIWRILFLVGAATGAHSGPGSDLGIKLLFAAAKGQDDEVRILLAAGADVNAKDFEGYTPLHVAAYDGHLEIVEVLLKAGADVNAKDSQGRTPLHEAAYSGHLEIVEVLLKAGADVNAQDDAGETPADLAAAWGHEDIAEVLQKGSGGGGSGGGGSGGGGSFEQVQLQQPGAELVKPGASVKMSCKASGYAFSSYWINWMKQKPGQGLEWIGQIYPGDGDTNYNGKFKGRATLTADTSSSTAYMQLSSLTSEDSAVYFCARSITTVVGCAMDYWGQGTSVTVSSTRIQNPDPAVYQLRDSKSSDKSVCLFTDFDSQTNVSQSKDSDVYITDKCVLDMRSMDFKSNSAVAWSNKSDFACANAFNNSIIPEDTFFPSPESSCDVKLVEKSFETDTNLNFQNLSVIGFRILLLKVAGFNLLMTLRLWSSRAKRSGSGVKQTLNFDLLKLAGDVESNPGPSRGHMTEYKPTVRLATRDDVPRAVRTLAAAFADYPATRHTVDPDRHIERVTELQELFLTRVGLDIGKVWVADDGAAVAVWTTPESVEAGAVFAEIGPRMAELSGSRLAAQQQMEGLLAPHRPKEPAWFLATVGVSPDHQGKGLGSAVVLPGVEAAERAGVPAFLETSAPRNLPFYERLGFTVTADVEVPEGPRTWCMTRKPGA
# B4: 22197 (protein)
# chain: B3 chain
# What was measured:
# Format in all cases: cell-based
# Nalm6 cells = experiment: JNG assay, co-culture with Nalm6 cells; details: co-culture with Nalm6 cells
# How it was run: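 Scoring uses % GFP+ reporter cells above the parental control, where +/-, +, 2+, 3+, 4+ and 5+ correspond to about 5, 10, 20, 30, 40 and 50%. Effectors were SAR-expressing Jurkat NFAT-GFP cells cocultured with targets (E:T ~1:2, ~4–18 h).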
# SKOV-3 cells = experiment: JNG assay, co-culture with SKOV-3 cells; details: for NFAT-GFP ASSAY: SKOV-3: co-culture with SKOV-3
# Description: (§1) Cellular supernatant is collected and assayed for the induction of cytokines (e.g., IL2).
# (§2) JNG (Jurkat cells expressing EGFP under an NFAT promoter) were infected with lentiviral vectors encoding different single chain and multi-chain SARs by spinfection in the presence of 8 µg/ml of Polybrene® (Sigma, Catalog no. H9268). The Jurkat-NFAT-GFP cells are engineered in such a way that the IL-2 promoter, which carries NFAT binding sites, is cloned upstream of the GFP gene. These cells have been used to study signaling via TCR and CAR. The different SARs were stably expressed in Jurkat NFAT-GFP cells by lentiviral mediated gene transfer, followed by selection with puromycin or blasticidin. No drug selection was used in case the construct lacked an antibiotic resistance gene. The SAR-expressing Jurkat-NFAT-GFP cells were cocultured with the target cells at E:T ratio of approximately 1:2 for approximately 4 hours to 18 hours. When the interaction between SIRs and their target antigen results in activation of the NFAT pathway, GFP expression is induced. […] GFP expression was monitored by FACS analysis. The Jurkat-NFAT-GFP (parental) cells were used as control. The structure of different constructs can be determined based on their names. […] The sequence of the other constructs in the table can be similarly determined from their names and by referring to the different Tables of this disclosure that provide the names and SEQ ID NO of the different modules. Alternatively, the composition and modular architecture of the different SAR constructs can be determined from their sequences by bioinformatics tools, including using nucleic acid and amino acids homology searches. A SAR is considered positive in the assay in case the SAR expressing Jurkat-NFAT-GFP cells show greater % GFP positive cells when cultured with the target cell line as compared to parental Jurkat-NFAT-GFP cells. […] In general, the number +/-, +, 2+, 3+, 4+, 5+ refer to approximately 5%, 10%, 20%, 30%, 40% and 50% GFP positive cells. The % of GFP induction in the above assay is dependent not only the relative strength of the SAR but also, among other factors, on the relative level of expression of the SAR in the JNG cells and the relative level of expression of the target antigen in the target cell line. To control for the difference in gene transduction efficiency of the different SAR constructs, the experiment was conducted with JNG cells transduced with SAR constructs co-expressing a drug resistance gene (e.g., puromycin or PAC) followed by drug selection to generate a stable population of SAR-expressing cells. It is to be noted that the drug resistance gene (e.g., PAC) in the SAR constructs is optional and in vivo studies were conducted with SAR constructs lacking the PAC gene.
# RAJI cells = experiment: JNG assay, co-culture with RAJI cells; details: for GFP induction / activity: co-culture with RAJI cells; for NFAT-GFP ASSAY: Raji: JNG cells expressing construct, co-culture with Raji
# How it was run: (§3)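 Jurkat NFAT-GFP (JNG) cells stably transduced with SARs by lentivirus, with drug selection where the construct carried a resistance gene, then co-cultured with target cells at E:T ~1:2 for ~4–18 h. % GFP-positive cells measured by FACS against parental JNG; +/- to 5+ correspond to ~5–50% GFP-positive.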
# RAJI-CD19-KO cells = experiment: JNG assay, co-culture with RAJI-CD19-KO cells; details: co-culture with RAJI-CD19-KO cells
# How it was run: as §3
# [1] = system: target antigen-expressing cell line; experiment: Jurkat NFAT-GFP (JNG) assay: induction of NFAT promoter driven GFP expression; details: SAR-expressing JNG cells co-cultured with cell lines expressing their target antigen(s)
# Description: Induction ofNFAT promoter driven GFP expression. […] Cellular supernatant is collected and assayed for the induction of cytokines (e.g., IL2).
# as §1, §2
Molecule,GFP induction / activity (Nalm6 cells),GFP induction / activity (SKOV-3 cells; co-culture with SKOV-3 cells),GFP induction / activity (RAJI cells),GFP induction / activity (RAJI-CD19-KO cells),GFP induction / activity in JNG assay [1],NFAT-GFP ASSAY: SKOV-3 (SKOV-3 cells),NFAT-GFP ASSAY: Raji (RAJI cells)
B1,robust activity,robust activity,robust activity,,,,
B2,,,effective GFP induction,effective GFP induction,effective GFP induction,,
B3,,,,,,"4+ (refer to approximately 5%, 10%, 20%, 30%, 40% and 50% GFP positive cells)","4+ (refer to approximately 5%, 10%, 20%, 30%, 40% and 50% GFP positive cells)"
B4,,,,,,"5+ (refer to approximately 5%, 10%, 20%, 30%, 40% and 50% GFP positive cells)","2+ (refer to approximately 5%, 10%, 20%, 30%, 40% and 50% GFP positive cells)"
